These results are taken from US20140235471A1.

Where two headings read alike, the source gives them in different places.

The target in experiment [1] is cell-free expressed recombinant human p53 with N-terminal VSV-G epitope tag and C-terminal polyhisti (human) (UniProt P04637). As to the kind of experiment: fluorescence imaging of p53 positive against negative control blank beads.
For experiment [2] the target is unchanged. The experiment in a line: Bead-ELISA, chemiluminescence normalised to bead fluorescence; mass-tagged beads. In general terms: ELISA stands for enzyme-linked immunosorbent assay.
The target is the same in experiment [3].
Experiment [4] has the same target. This is another data set of the same source.
Experiment [5] has as its target cell-free expressed recombinant human KLHL12 with N-terminal VSV-G epitope tag and C-terminal polyhistidine and HSV epitope tags (human) (UniProt Q53G59).
The target in experiment [6] is cell-free expressed recombinant human p53 with N-terminal VSV-G epitope tag and C-terminal polyhisti (human) (UniProt P04637). As to the kind of experiment: fluorescence imaging of p53 beads against blank beads, anti-VSV-Cy3 antibody.

Chain of UniProt Q53G59 (Q53G59 other isoform, or with tags, fused parts or gaps limits assumed): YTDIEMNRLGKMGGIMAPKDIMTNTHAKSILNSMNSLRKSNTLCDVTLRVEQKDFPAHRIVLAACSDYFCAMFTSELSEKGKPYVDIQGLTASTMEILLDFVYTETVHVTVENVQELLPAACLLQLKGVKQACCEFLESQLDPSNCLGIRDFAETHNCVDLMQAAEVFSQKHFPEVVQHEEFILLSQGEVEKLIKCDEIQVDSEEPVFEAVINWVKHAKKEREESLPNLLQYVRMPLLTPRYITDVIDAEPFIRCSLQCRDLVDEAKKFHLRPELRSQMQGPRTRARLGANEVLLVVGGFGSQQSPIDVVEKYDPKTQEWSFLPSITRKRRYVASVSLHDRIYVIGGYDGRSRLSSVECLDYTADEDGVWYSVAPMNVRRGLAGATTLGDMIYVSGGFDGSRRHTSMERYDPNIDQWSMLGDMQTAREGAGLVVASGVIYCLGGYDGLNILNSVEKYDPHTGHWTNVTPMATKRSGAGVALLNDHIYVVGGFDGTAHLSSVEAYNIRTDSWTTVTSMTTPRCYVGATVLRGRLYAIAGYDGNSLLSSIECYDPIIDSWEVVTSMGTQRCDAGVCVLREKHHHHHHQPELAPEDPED

For the substance “fluorescently labeled (Alexa Fluor 594) anti-p53 antibody, clone BP53-12 (Santa Cruz Biotechnology)”, the signal-to-noise ratio in experiment [1] is > 100 :1.
For the substance “monoclonal anti-VSV-G horseradish peroxidase (HRP) conjugated antibody, Clone P5D4”, the signal-to-noise ratio in experiment [2] is 42 :1; in experiment [3] it was 82 :1.
As for “fluorescently (Cy3) labeled anti-VSV-G tag antibody (Sigma-Aldrich)”, the signal-to-noise ratio in experiment [4] is 60 :1; in experiment [5] it was 10 :1. In experiment [6], the signal-to-noise was 25 :1.
In the case of “anti-HSV tag monoclonal antibody (EMD Biosciences)”, the reduction of the binding capacity of the beads for p53 by the mass tag in experiment [3] came to 50%.
